Assay results reported in article PMC549407.

Molecular target: HIV-1 integrase (IN), recombinant, from the San Francisco isolate SF2 (HIV-1 (San Francisco isolate SF2))
Assay: cross-linking

With “HIV-1 integrase (IN), recombinant, from the San Francisco isolate SF2 (enzyme)” the stoichiometry N was 2.
